Source: article PMC10441885

Molecular target: recombinant PsCAT1 fusion protein (His6-SUMO-PsCAT1 without the signal peptide, from pET15b-SUMO-PsCAT1) (Puccinia striiformis f. sp. tritici)
Experiment: SEC

recombinant PsCAT1 fusion protein (His6-SUMO-PsCAT1 without the signal peptide, from pET15b-SUMO-PsCAT1) (enzyme)
stoichiometry N: 23
